Data reported in article PMC2704394 (2009).

B1: full length S. pombe Pik1, wild type [S. pombe] / purified Cdc4 protein [S. pombe] (parent)
chain 1: MPSSNSGNELLLRFFESAHFTSQLCVAYLSRYPNNIGIHHFLCEKLATFPYEEIEFFIPQLIHLVLNKDSESVALEEFIISQCEQNTQCALITFWYLQAHMVDLGLQPHSSCFKICKRLYNRIQILVFMSSSSLIQSQQKISENVTPALILSGIMLGGVCVPELLKKAGPIAIAQGRKAPRQDPDESDVDVLRRLSTEPRYSLDVLRSSLNNSIVEQHSEVSLRLKAPELTRTHSYQSSATLSIDEQRRVLRSNYFQQEIQFLFALQDISIRLIIVPRQARLSSLRAELALLNNNLPADVNIPLLRSYHKEVSHKIVRIDPKEATILNSAERVPYLIMVEVLSGELSFEPQSKKNKAKVQKIVSHKNQRKRWFDLTDVDPYTNLQDSTDNDISESESEGGDLSMSPLIKGLVPDTLSLSKSFSSFGNVSLQVPSSHRDTDVVLLSGRHSDSDGNGALKRSKIYASEITARMRAAATMLSQLDAEGSRRPKAETERIKNSIILDMQRLEEERLNEPSIYPVSVDISCAEDLRFGKETQKAERKGDRDDPSAATFQEDWYAKKERIRKSSPYGHYPNWDLVSVIVKTGADLRQETFACQLIYAFQRVWLECKEKVWVRRMKILVTGDNSGLIETITNAISVHSIKKNLTKQLREAELAQGKIAGKNVVTLKDYFIKQFGDPNSSRYRQAQTNFLQSLVAYSIISYLLQLKDRHNGNVLIDSEGHIIHIDFGFLLTNTPGNVGFESAPFKLTADYLEILDDRFDEYRSLMKAAFKSVRKNADQIILLVEVMQNNSTMPCFRAGENTSAQLLQRFQLQLGDKECDDFVDLLIQKANCSVWTRLYDLFQNITNGIY
chain 2: MSTDDSPYKQAFSLFDRHGTGRIPKTSIGDLLRACGQNPTLAEITEIESTLPAEVDMEQFLQVLNRPNGFDMPGDPEEFVKGFQVFDKDATGMIGVGELRYVLTSLGEKLSNEEMDELLKGVPVKDGMVNYHDFVQMILAN

Variants of: B1
Assay: sandwich ELISA
Conditions: with purified Cdc4 protein [S. pombe]; about 7 µg lysate protein; cells grown in the absence of thiamine; Cdc4-coated wells; parent: 0.02; read off a plot

| Variant | response |
| --- | --- |
| chain 1 D709A | 0.083 Absorbance |

Same assay, conditions: with purified Cdc4 protein [S. pombe]; about 14 µg lysate protein; cells grown in the absence of thiamine; Cdc4-coated wells; parent: 0.03; read off a plot

| Variant | response |
| --- | --- |
| chain 1 D709A | 0.13 Absorbance |

Same assay, conditions: with purified Cdc4 protein [S. pombe]; about 28 µg lysate protein; cells grown in the absence of thiamine; Cdc4-coated wells; parent: 0.073; read off a plot

| Variant | response |
| --- | --- |
| chain 1 D709A | 0.21 Absorbance |

Same assay, conditions: with purified Cdc4 protein [S. pombe]; about 56 µg lysate protein (highest point of 2-fold serial dilution); cells grown in the absence of thiamine; Cdc4-coated wells; parent: 0.27; read off a plot

| Variant | response |
| --- | --- |
| chain 1 D709A | 0.57 Absorbance |
